Results: paper PMC2791020
pKd: −log10 of the molar value.

Columns and labels:
[1] = target: protein kinase A catalytic (C) subunit mutant K285P; assay: SPR
[2] = target: protein kinase A catalytic (C) subunit, wild type (UniProt P05132); assay: SPR

pKd [1] | koff [1] | kon [1] | pKd [2] | koff [2] | kon [2] | Substance
6.95 | 0.0123 s⁻¹ |  |  |  |  | RIIβAB, truncated PKA regulatory subunit RIIβ (from UniProt P12369 108-402) (domain or fragment)
8.31 | 0.00443 s⁻¹ | 906000 M⁻¹ s⁻¹ | 9.05 | 0.000844 s⁻¹ | 919000 M⁻¹ s⁻¹ | RIαAB, truncated RIα(91–379) containing both cAMP-binding domains (domain or fragment)
